Source: paper PMC3048872, “The Regulatory Subunit of PKA-I Remains Partially Structured and Undergoes β-Aggregation upon Thermal Denaturation” (PLoS ONE, 2011)

Molecular target: the molecule itself
Assay: dynamic light scattering; thermally denatured RIα(92–381), soluble aggregates; 10 mM K-phosphate buffer, 50 mM KCl, pH 7.5; measured at 22 and 60°C

B1: human RIα(92–381), regulatory subunit RIα of cAMP-dependent protein kinase (PKA), truncated form with the tandem CNB domains A and B (domain or fragment, UniProt P10644 92-381, looked up)
chain: KGRRRRGAISAEVYTEEDAASYVRKVIPKDYKTMAALAKAIEKNVLFSHLDDNERSDIFDAMFSVSFIAGETVIQQGDEGDNFYVIDQGETDVYVNNEWATSVGEGGSFGELALIYGTPRAATVKAKTNVKLWGIDRDSYRRILMGSTLRKRKMYEEFLSKVSILESLDKWERLTVADALEPVQFEDGQKIVVQGEPGDEFFIILEGSAAVLQRRSENEEFVEVGRLGPSDYFGEIALLMNRPRAATVVARGPLKCVKLDRPRFERVLGPCSDILKRNIQQYNSFVSLSV
notes: cAMP-dependent protein kinase type I-alpha regulatory subunit (RIα), human, residues 92-381, numbering according to Swiss-Prot P10644; lacks the N-terminal docking/dimerization domain; In the aggregation experiments the protein was thermally denatured; the self-association is that of the partly unfolded, non-native state; also called apo-RIα(92–381); wt RIα(92–381); source: E. coli BL21 (DE3) …
B1: binds.
